The subject of data set [1] is anti-BPDE-DNA monoclonal antibody 8E11 (Mus musculus). The note with it: single (+/-)-anti-BPDE-N2-dG adduct in the SEQ:5 segment; CE/LIF; complex formation with native duplex, 20 ug/mL (printed mg/mL) 8E11.
For data set [2], the system named is anti-BPDE-DNA monoclonal antibody 5D11 (Mus musculus). The note with it: slight cross-reaction at 20 ug/mL 5D11.

Sequence “CCTTAAGCTTCCTCAACCACTTACCATACTCGAGATTCCCATTATGCATAACCGTCATATGCCGCCTCTGACCTTCCTAGAATTCCATCC (double strand) [TMR-BPDE-90-mer, native duplex]” had a binding signal (fold lower than denatured) in data set [1] of 6. As to “CCTTAAGCTTCCTCAACCACTTACCATACTCGAGATTCCCATTATGCATAACCGTCATATGCCGCCTCTGACCTTCCTAGAATTCCATCC [TMR control 90-mer (no BPDE), heat-denatured]”, the binding signal (% of total peak area) in data set [2] turned out to be 2.1.

The values are drawn from US20020061531.
